Assay: soluble on expression in E. coli; label from the status in PepcDB or PDB records

Question: For “MAFGVLALVHTACENAKYDVIDNLVYINEASTSKTKELTLTEGTTRTSLTVRLVNIINQTIKANLFIDESVLDAYNKKNETNYKMPPKEYISFPESVTIEAGSVSADPVNVDIKSFEAEGGAQYAIPISIKNVEGGIEKSESSSSFLLVLVKPLKQAVPKLTWYNGMHAAPEGAWGLALPNYTLEWWSKVTSKSGNGGYTKNNQAIINSGGLGTELYIRFGDLIYSENGSYKNNFLQVKTMGSQFDTGDPTKGKGLEAQKWYHFAVSYDAASGTTLLYQNGTVVASLSSSIGQPMNIDQFQMISSGEEYFPDFCEMCQVRFWKVTRTVNQIKKSMYTEVDYTDKNLLLYLPMNEGEGATILHDVTGNGHDVEIGNSNLGNENRQKVTWETYSFAQ”, which “soluble on expression in E. coli” value is on record?
Answer: not soluble

Question: For “MAFIHTSLTRLMRFAVDQTKDIIEPLMVTKVLTEFSESENDGLSHYAHYAKFHNYLVPNMAKLAEYSIEERVRVIFGFAAVVSDDFLKQIQREGLVHLDKKKRICKFTSHNGKWKLEGDHSHSARMKRRWSMRVRVVVGLPSLMNFLVEKTKDIIEPMLASAAFREFSESEDGGLPEHAYYNHFHKNVAPNMAKIEEYSIEERVRVMFALAGRVSADFRAQTKGLVELDDGKRISKFTSTDGKLKLEGDHSDSARRKRSAAFYRKTDHHCRSANDSKPRRKNGRQSDSEFSDKSGSDEDDVESAISYGNSPKRARCEKSADPEMHVSSGSDDDEVEDVGGMDEEPVLLPIDSDESHIGHLQNGEEMMVEDDNQPIPEDPQYSANSSHQGRRMSGRIQEKLSASIAQETTDAAVAIPHVPILNPPFESDDEEVKYIGAVKGQPKPGPIESVFDQINNRDHFQGNQEYRNQSISERKVDVPLFVEHQQISLSAENRATSAEWKSIFLHDFLKQLTQFICFFECSELAEIKRNIKEVMADEGKISSFQKLEIIDIRTVLGAFFFGVSRKIKSTGSNNSTMKAKDFLVTFKYFLLGLDFSELLELSTVFKRKLTSSHVQRHPPSSPKPTLHNF”, which “soluble on expression in E. coli” value is on record?
Answer: not soluble

Question: With “MAFTPFPPRQPTASARLPLTLMTLDDWALATITGADSEKYMQGQVTADVSQMAEDQHLLAAHCDAKGKMWSNLRLFRDGDGFAWIERRSVREPQLTELKKYAVFSKVTIAPDDERVLLGVAGFQARAALANLFSELPSKEKQVVKEGATTLLWFEHPAERFLIVTDEATANMLTDKLRGEAELNNSQQWLALNIEAGFPVIDAANSGQFIPQATNLQALGGISFKKGCYTGQEMVARAKFRGANKRALWLLAGSASRLPEAGEDLELKMGENWRRTGTVLAAVKLEDGQVVVQVVMNNDMEPDSIFRVRDDANTLHIEPLPYSLEELEHHHHHH” as the sequence, how does the “soluble on expression in E. coli” value read?
Answer: not soluble

Question: With “MAGASHDIHPPKVEYFDLRDHTNTDPKGFVRHVDHYRVEPWGLYMARTSDHPQFHYLESWLLPDLGLRASIFHYHPYHQRDQDHYVDIGTFTRGDDVWKSEDHYLDLVVRTGRDTELLDVDELMEAHTTGLLDTATAEQAILTATTAIDGIAAHGHDLGRWLASIGMPIDWR” as the sequence, how does the “soluble on expression in E. coli” value read?
Answer: soluble

Question: With “MAGDPMRKSKLTFIATFLILLFLSMPYKAHAASQTPITRADAEQRALTMINLNWTYSKSKNGVLPSAYSGSITAPSQFRGIENVVATGIPYCWGGFDGLNSSSYGESWTNFTDAVNKGAFVGNVKSSSYGHITGTAGLDCSGFVQATFNIKDYKLSTSTIFNQYFTKIDIKDIKHMDILNLPGNHVVIFDKWGTRNGVNGAYTYEATPDTTYGGIQGTKQYFMSMNTVSQYIPGRYVNIKEVAYVQVINASSLNIRTGPSTSYPIIGTISQNQIAEVTGYSSDGTWYKIKINGIEGYASSTYLTYVNNLEHHHHHH” as the sequence, how does the “soluble on expression in E. coli” value read?
Answer: not soluble

Question: Which “soluble on expression in E. coli” value does the source give for “MAGDPMRMVAHRFLRPQEAHMQVLVRDNNVDQALRILKKKLQREGVFREMRLREAFEKPSIKKAREKAEAIGRQRKLARKQMQREGLLPTKPRKDKLEHHHHHH” here?
Answer: not soluble

Question: With “MAGDPMSMHPALKYIQGYPQHIVEQVAQLIANDKLIPWFEQRYPERHDIQSEKALFDFTMALKNQYMKKTAPLSKVVYDGKIHLINNALGLHSYVSRVHGNKLKAKNEIRIANVFKQAPEPLLRMLVVHELAHLKEKEHNKAFYQLCCHMEPNYHQLELDARLYMMVLELKAGKALEHHHHHH” as the sequence, how does the “soluble on expression in E. coli” value read?
Answer: not soluble

Question: Which “soluble on expression in E. coli” value does the source give for “MAGDPMVMLNTHVVECLQACGRCAAACDYCASSCLREGHGADMARCIALDLDCAAACRLCAAMMARESEFSTHMCTLCARICEVCGDECARHEPRHCQECATACHACASACRAMARPLEHHHHHH” here?
Answer: soluble

Question: With “MAGFSVNSPKARKSDQELVAGVLEDKKQFAAIVQRYEEPLFRYIVRQGARDRELARDILQEVFIKVYLHLNDYDASLPFSSWIYRIAHNETITHFRKEKNRPLVLDKGDDDEFFGKIVDDLELSRADGQYDVSDIQTVLERLEPRYRDILVLKFFEDKSYEEISDILQMPQGTVATLINRAKKKVKASLEKN” as the sequence, how does the “soluble on expression in E. coli” value read?
Answer: not soluble

Question: For “MAGHSHWAQIKHKKAKVDAQRGKLFSKLIREIIVATRLGGPNPEFNPRLRTAIEQAKKANMPWENIERAIKKGAGELEGEQFEEVIYEGYAPGGVAVMVLATTDNRNRTTSEVRHVFTKHGGNLGASGCVSYLFERKGYIEVPAKEVSEEELLEKAIEVGAEDVQPGEEVHIIYTVPEELYEVKENLEKLGVPIEKAQITWKPISTVQINDEETAQKVIKLLNALEELDDVQQVIANFEIPEEILQKVG”, which “soluble on expression in E. coli” value is on record?
Answer: soluble

Question: For “MAGLLKESMRIKMYMEGTVNGHYFKCEGEGDGNPFAGTQSMRIHVTEGAPLPFAFDILAPCCESRTFVHHTAEIPDFFKQSFPEGFTWERTTTYEDGGILTAHQDTSLEGNCLIYKVKVHGTNFPADGPVMKNKSGGWEPSTEVVYPENGVLCGRNVMALKVGDRHLICHHYTSYRSKKAVRALTMPGFHFTDIRLQMLRKKKDEYFELYEASVARYSDLPEKAN”, which “soluble on expression in E. coli” value is on record?
Answer: soluble

Question: For “MAGLRSFSIVMPAYNVVTQRGERIFRETLESIAASCRYLQQHFPYTPEGELILISDGSTDRTCDVAMAGWPNAVPLQLVGLPTNVGIAAARNIGVRLAKGEVIFFCDADDLYRPEHLFLALSVLNQPLPEPYAPAYFGAVRTGVYCRDRLHPYWHKSLEQTLVLNLAVRREVHEFIGGFPEDEVFRQFRYGAEDVAYAYWLHQFCHTARLEQRTVEYRRFPLEHHHHHH”, which “soluble on expression in E. coli” value is on record?
Answer: soluble

Question: Which “soluble on expression in E. coli” value does the source give for “MAGNANSVDEEVTRILGGIYLGGIRPIIDHRPLGAEFNITHILSVIKFQVIPEYLIRKGYTLKNIPIDDDDVTDVLQYFDETNRFIDQCLFPNEVEYSPRLVDFKKKPQRGAVFAHCQAGLSRSVTFIVAYLMYRYGLSLSMAMHAVKRKKPSVEPNENFMEQLHLFEKMGGDFVDFDNPAYKQWKLKQSIKLDPSGSELVSNSGMFKDSESSQDLDKLTEAEKSKVTAVRCKKCRTKLALSTSFIAHDPPSKESSEGHFIKRAANSHRIIDIQESQANCSHFFIEPLKWMQPELQGKQELEGKFSCPGCSSKVGGYNWKGSRCSCGKWVIPAIHLQTSKVDQFPLQSTALPNMVNFESEKVNR” here?
Answer: not soluble

Question: Which “soluble on expression in E. coli” value does the source give for “MAGRVHPRQLAFSLPHAESLSRDNFLEGPANAAGLALIDGWPEWPNRIMWLAGPEGSGKSHLAAIWAEEAGARSTTANALSAAGVPGALATGALVVEDLKAKDFDERALFHLMNLAREDGAYVLFTGRDVPAALDIELNDLRSRLRAVPVVMLLPPDDQLFRGLIVKFCADRQLTVDESVVSYLATRLERSSAAARQAVELLDSEALRLGRPVTRALAAELLRDALEHHHHHH” here?
Answer: soluble

Question: Which “soluble on expression in E. coli” value does the source give for “MAHCTEYMNAPKKLPADVAEELATTAQKLVQAGKGILAADESTQTIKKRFDNIKLENTIENRASYRDLLFGTKGLGKFISGAILFEETLFQKNEAGVPMVNLLHNENIIPGIKVDKGLVNIPCTDEEKSTQGLDGLAERCKEYYKAGARFAKWRTVLVIDTAKGKPTDLSIHETAWGLARYASICQQNRLVPIVEPEILADGPHSIEVCAVVTQKVLSCVFKALQENGVLLEGALLKPNMVTAGYECTAKTTTQDVGFLTVRTLRRTVPPALPGVVFLSGGQSEEEASVNLNSINALGPHPWALTFSYGRALQASVLNTWQGKKENVAKAREVLLQRAEANSLATYGKYKGGAGGENAGASLYEKKYVY” here?
Answer: soluble

Question: With “MAHHHHHHMADYNAAGADTAVVDDNVPPGITTKQDEIIQYVAKYVVASCDGARYQDKVRTRTKHNPYFDFLNAKHPYHQYYQYLLESYRHWMRNSEAVGAGTWGGGVDATQGQGQQQQWNEEDYYQYYGAYAGQASGIEFQGNAAGQLG” as the sequence, how does the “soluble on expression in E. coli” value read?
Answer: not soluble

Question: With “MAHHHHHHMAPQFYLGLQMSAIIAAIPDITRAHSAVEVSEMTDLLRAGVTPYARMLDDEDFNEEFVFGMYGMALDSWQRASYEEMTKKYHLALTAIHEAINPPFKLEHFQRITRLVLARAEHVPPADYYSGHLFLRRLRRRWRRLRKIPEPAQVALVPYVDLVNHSNRPNCTIRIGPSSVLSGESAITLFTLRDVLPGQELCRHYNFALNRASALFRYGFLPFDLISIVEHDAVDEHVMKSRDMFRAVSEEQLEHQRREAEEVARLEKLFQDAKQSHGGSGAAASTPPGRQPNPSLSDRVSRREE” as the sequence, how does the “soluble on expression in E. coli” value read?
Answer: not soluble

Question: With “MAHHHHHHMAQCLTWQVLDQRQTGECLDAVDLEALRAVIKRIDDDRDGALLHSSERTATQVNVLLDLYGHLVLFAKASQFSPFKTSTLFGIVHRVHEASIADRLSRFHSYDLLRELVVRHSVHRPPYSTMVFSVREVQDIDTYMMSTYYRHYKMYVYCFVPREVASLRTVMLNDTAEAPPAQLPPLSAAIREDAWKEKMQEKVRTLEEAEMEEQLIVSDAVSEAQKNAATLDNSRFMAGISAQLEAIRDAVSTKSSERLDLIEEKLTAIEAKVNEAQSSGNRSRQGSRGSSKRK” as the sequence, how does the “soluble on expression in E. coli” value read?
Answer: soluble

Question: For “MAHHHHHHMASADSKAVLLSSQPGATAYSSTVAVKVQAGRMILQDGIVRPLLGSGFLFLLREGLLQDTVLTWVSSDGEEQCRVTLPPGRVKVSWVEKCRPSRVLLFDIDNGKQPLFFWMQSRSDELDEPVMHRIQHAIERNRQQAVAQHGRREIKMGTLQNILSDLWSEALAHDVNLVDILGSEKLLKALQEDPGFYTLRLKDYLPLGELDSGVPLDLKKLMNDRQVQWTAEILGTLLRHETTYSQLSASFLNGTMLWGANVTSFIVSIINIFLPQNEQQQMGESDN”, which “soluble on expression in E. coli” value is on record?
Answer: not soluble

Question: For “MAHHHHHHMAVLVKNYEASLVDMAVQDFIKLGIDGVYTTMKTVVSFEYIFNFTSHMRNLHKYSTNFLELQINDHNKECVTNILQNLTMENIRKSSSASIKAGFEFLNALNDDIKKKHFSENVNYMVMVTITWDIHGNSGVSPNEPFSILCYIKCLPKHGSHVQIDIMCGERKTPNIKYSNVFDVRNKMLKLKSEDSHEVVLYNEKEEITEGLTCNFFCFFNDTLYTANDELVLKGTMREQIIHICEEEGVKLKKEAISIRDVGRFEFCFICSTTRNIIPVKKIILCSENKAEFEKDVHHPVLVKLQQKLREAVEKKKEKYEAYVSAALGV”, which “soluble on expression in E. coli” value is on record?
Answer: not soluble

Question: Which “soluble on expression in E. coli” value does the source give for “MAHHHHHHMAVNARHDLLYECLGLVYELYGGLAEDLQELHDDPLHPHFHRRIARIKRDRERIATELDKRYAKLHPTVKTVYDAFLVRRYYHLADWIEHVERKRERLINDLSPDVMEKTMRMRGIAEQYLRHLRALEHALYEDPLMGLLGGDRGTNVLDQYTPGELAMLRQKAAYFRNMRRFGANQLDADMHTH” here?
Answer: not soluble

Question: Which “soluble on expression in E. coli” value does the source give for “MAHHHHHHMAWCDASFSVIYGNEELVVVNKPHDVPMDGEACPVTVEKWAWAYLAKGGCADNNAGGGVEKEDDTTRTAGRRRGEKKMVKFVHQLDYATSGVLCVAFSREMAARLAHCFEMRTTRKAYLAVLFGMMPTTSAMQKKLDTDTGVDFLRGSPYASHVRRVSMDDVPGVCFIRKCVIEASGHEEGENADCCATLLEVNLPVGYDTTDHEGFRMTVNGRDARGSVTYLSVLQRGYMTHPTSGCPVPVTKVALFPRTGRRHQLRVHCHAIGFPILGDVTYARIPTPRVAPKVTGAEEVATVGATESINAPNEIGAIEAWQRMMLHAWRLSFPVSVEPLRSGSERYMQKKKRRRETLGLAVAGGDDTTVWTHFETEDPFQLVRPE” here?
Answer: not soluble

Source: the DeepSol protein solubility set
